Results reported in patent US8809529B2, “Imidazo[1,2-α]pyrazine derivatives” (Promega Corporation, priority 2010, dated 2014).
Like-named read-outs stand apart in the source and are kept apart here.

What was measured:
[1] = Luminescence screen of OgLuc variants in lysed E. coli cells; format: biochemical; details: QC27-9a versus C1+A4E
Protocol: Resulting libraries were expressed in E. coli and primarily screened with a robotic system for OgLuc variants having increased light output (i.e., increased luminescence, increased brightness, or increased light emission) or a change in relative specificity compared to the corresponding starting OgLuc variant. The robotic primary screen was conducted as follows: individual colonies from the generated library were used to inoculate minimal media in 96-well plates and grown at 37° C. for 17 to 20 hrs (“M1 culture”). The M1 culture was diluted 1:20 with fresh minimal media and grown at 37° C. for 17-20 hrs (“M2 culture”). […] The use of the different induction media was determined based on the luminescence generated between C1+A4E and the novel coelenterazines, i.e., the induction media containing rhamnose and glucose were used with novel coelenterazines that generated less luminescence with C1+A4E compared to the other novel coelenterazines with C1+A4E.
Luminescence measurements for each variant were taken 3 min after reagent addition and relative luminescence unit (RLU) values were normalized to an average of 8 control wells of the corresponding starting OgLuc variant for each plate. […]

HEK293 cells [2] = assay: Toxicity of coelenterazines in HEK293 cells (CELLTITER-GLO); details: 24 hrs after compound addition
HEK293 cells [3] = details: human, 24 h
OgLuc variant 9B8 opt = target: T1, OgLuc variant 9B8 opt (Oplophorus gracilirostris, UniProt Q9GV45, A31E/A60K/A81I/F95Y/I117V/L99Q/M102K/N193R/P142E/Q151K/Q38R/Q45L/V71I/Y165I); assay: Multiplex assay with red click beetle luciferase and 9B8 opt (modified DUAL-GLO); format: biochemical
T1 construct: made in house; host or cells: E. coli (crude lysate)
Protocol: A. Lysates of E. coli expressing the variant 9B8 opt were prepared as previously described in Example 27 and diluted 1000-fold in DMEM without phenol red+0.1% PRIONEX®. Luminescence from a sample containing 6.3 μg/mL of purified red click beetle luciferase and E. coli lysate expressing the variant 9B8 opt was detected using a modified DUAL-GLO® Luciferase Assay System (Promega Corp.). DUAL-GLO® STOP&GLO® Reagent containing 20 μM coelenterazine-h and DUAL-GLO® STOP&GLO® Reagent containing 20 μM PBI 3939 were used, according to the manufacturer's protocol, to detect the red click beetle luciferase and OgLuc variant 9B8 luciferase from a single sample. Three replicates were performed.
Luminescence was detected on a Turner MODULUS™ luminometer. […] The standard deviation (“+/−”) and coefficient of variance (“CV”) are also shown. A “no coelenterazine” control was performed to illustrate the amount of quenching of the red click beetle signal by the DUAL-GLO® STOP&GLO® Reagent of the DUAL-GLO® Luciferase Assay System in the absence of coelenterazine. The “no coelenterazine” control yielded a 349-fold quench.

[4] = Stability of coelenterazines in reporter reagent buffer (T90); details: time for luminescent signal to decay by 10% at 22° C.; read with OgLuc variant IV lysate
[5] = tested on: cAMP response element (CRE); assay: CRE transcriptional reporter, forward transfection, HEK293 cells; format: cell-based, human; parameters: Response: scale not given here; details: for baseline: 10 nM FSK; for baseline / RLU (10 μM FSK): 3 h
Protocol: HEK293 cells were plated at 15,000 cells/well in six 96-well tissue culture plates. Cells were grown in 100 μL of DMEM+10% FBS+1× non-essential amino acids (NEAA) and incubated overnight at 37° C. The cells were transiently transfected with either 10 ng or 100 ng plasmid DNA/well of pGL4.29 9B8 opt, pGL4.29 9B8 opt-P, or pGL4.29. Plasmid DNA was mixed with 850 μL of OPTI-MEM® (Invitrogen) and 32.4 μL of FUGENE® HD transfection reagent (Promega Corp.) and incubated at room temperature for 10 min. Eight μL of the transfection/reporter DNA mixture was added to the appropriate wells (2 constructs/plate). Cells were incubated for 4 hrs at 37° C. The medium was replaced with OPTI-MEM®+0.5% dialyzed FBS+1×NEAA+1× sodium pyruvate+1× Penn-Strep and incubated overnight at 37° C.
A lytic reagent containing 100 mM MES pH 6.1, 1 mM CDTA, 150 mM KCl, 35 mM thiourea, 2 mM DTT, 0.25% TERGITOL® NP-9 (v/v), 0.025% MAZU® DF 204, and 20 μM PBI-3939 was added to the cells containing pGL4.29 9B8 opt or pGL4.29 9B8 opt-P and allowed to incubated for 10 min at room temperature (100 μL lytic reagent added to 100 μL cells). ONE-GLO™ assay reagent (Promega Corp.) was added to cells containing pGL4.29 and used according to the manufacturer's protocol (100 μL reagent added to 100 μL cells). Luminescence was measured on a GLOMAX® Luminometer.

[6] = tested on: antioxidant response element (ARE); assay: ARE transcriptional reporter, reverse transfection, HEK293 cells; format: cell-based, human; details: for baseline: 24 h, 100 ng DNA
Protocol: HEK293 cells were trypsinized (T75 flask, 3 mL trypsin) and resuspended in […] (approximately 8.9×10^6 total cells) in medium containing DMEM+10% FBS+1×NEAA. Each transcriptional reporter was prepared for transfection by mixing 1.2 mL OPTI-MEM®, 12 μL transcription reporter DNA (100 ng) and 36 μL FUGENE® HD transfection reagent together and incubated at room temperature for 35 min. Following incubation, 624 μL of the transfection/reporter DNA mixture was added to 12 mL of cell suspension and mixed by inversion. After mixing, 100 μL of the cell/DNA mixture was added to wells of a 96-well plate (2 constructs/plate). The cells were incubated at 37° C. for 22 hrs. Tert-butylhydroquinone (a Nrf2 stabilizer; tBHQ; 1 μM (“baseline”) or 20 μM) or sulphoraphane, (an organosulfer antioxidant known to activate Nrf2; 1 μM (“baseline”) or 20 μM) in OPTI-MEM® was added to each well and incubated at 37° C. for 24 hrs. Cells were lysed with 100 μL lytic reagent as described above for the forward transfection. Luminescence was measured on a GLOMAX® Luminometer.

CRE [7] = assay: CRE transcriptional reporter, bulk transfection, HEK293 cells; format: cell-based, human
Protocol: (§1) The transcriptional reporter containing […] and 9B8 opt-P was used in the bulk transfection of HeLa cells
(§2) HEK293, NIH3T3, or HeLa cells were plated to a single well of a 6-well tissue culture plate the day before transfection at a density of 4.5×10^5 cells/well in 3 mL complete medium (DMEM+10% FBS+1×NEAA+1× sodium pyruvate) for HEK293 cells, 3×10^5 cellsNvell in 3 mL complete medium (DMEM+10% fetal calf serum (FCS)+1×NEAA+1× sodium pyruvate) for NIH3T3 cells, or 9.9×10^5 cells/well in 3 mL complete medium (DMEM+10% FBS+1×NEAA) for HeLa cells. Cells were grown overnight at 37° C.
(§3) 3,300 ng of reporter plasmid DNA in 155 4 OPTI-MEM® was mixed with 9.9 μL FUGENE® HD transfection reagent, vortexed briefly, and incubated at room temperature for 10 min. The CRE transcriptional reporters were used to transfect HEK293 and NIH3T3 cells. The HRE transcriptional reporters were used to transfect HeLa cells. The reporter mixture was added to cells and mixed by gentle rocking followed by incubation at 37° C. for 6 hrs (HEK293 and NIH3T3) or 3 hrs (HeLa). Cells were then trypsinized and resuspended in medium (DMEM+10% FBS+1×NEAA+1× sodium pyruvate for HEK293 cells, DMEM+10% FCS+1×NEAA+1× sodium pyruvate for NIH3T3 cells, or DMEM+10% FBS+1×NEAA for HeLa cells), followed by plating to the individual wells of a 96-well plate (20,000 cells/100 μL for HEK293, 10,000 cells/100 4 for NIH3T3, or […] for HeLa) and incubated at 37° C. overnight.
(§4) FSK (CRE stimulator) or 17-AAG (HRE stimulator; 17-Allylamino-demethoxy geldanamycin) in OPTI-MEM® was added to the cells (10 nM or 10 μM final concentration for FSK; 1 nM or 1 μM final concentration for 17-AAG) and incubated at 37° C. for 4 hrs (FSK) or 6 hrs (17-AAG). Plates were removed from the incubator and allowed to equilibrate to room temperature for 25 min. Cells were lysed with 100 μL lytic reagent as described above for the forward transfection. Luminescence was measured on a GLOMAX® Luminometer.

CRE [8] = assay: CRE transcriptional reporter, bulk transfection, NIH3T3 cells; format: cell-based
Protocol: as §1, §2, §3, §4

[9] = tested on: heat shock response element (HRE); assay: HRE transcriptional reporter, bulk transfection, HeLa cells; format: cell-based
Protocol: as §1, §2, §3, §4

[10] = tested on: antioxidant response element (ARE); assay: ARE transcriptional reporter, reverse transfection, HEK293 cells; format: cell-based, human; details: 24 h, 100 ng DNA

## CC(C)c1[nH]c(-c2ccccc2)cn2c(=O)c(Cc3ccc(O)cc3)nc1-2 [PBI-3841]
[1]
  Change in relative specificity (novel coelenterazine/native coelenterazine): 350,000X
HEK293 cells [2]
  Viability (normalized to vehicle (DMSO) control) (%): 100%

## O=c1c(Cc2ccc(O)cc2)nc2c(C3CC3)[nH]c(-c3ccccc3)cn1-2 [PBI-3897, 8-cyclopropyl-2-(4-hydroxybenzyl)-6-phenylimidazo[1,2-a]pyrazin-3(7H)-one]
[1]
  Change in relative specificity (novel coelenterazine/native coelenterazine): 80,000X
HEK293 cells [3]
  Viability (normalized to vehicle (DMSO) control) (%): 100%

## coelenterazine-h [Coelenterazine h, reference compound]
OgLuc variant 9B8 opt; 20 μM substrate in DUAL-GLO STOP&GLO Reagent
  Ogluc (average luminescence generated by 9B8 opt): 921,440
OgLuc variant 9B8 opt; Ogluc signal relative to no coelenterazine control
  +/− coel: 64
HEK293 cells [2]
  Viability (normalized to vehicle (DMSO) control) (%): 100%
[4]
  Stability (pH 8) (T90 in hrs): 2.1 hrs

B1: 9B8 opt-P: 9B8 opt further comprising the PEST protein degradation sequence (protein)
chain: MVFTLEDFVGDWRQTAGYNLDQVLEQGGLSSLFQKLGVSVTPIQKIVLSGENGLKIDIHVIIPYEGLSGYQMGQIEKIFKVVYPVDDHHFKVILHYGTLVIDGVTPNMIDYFGRPYEGIAVFDGKKITVTGTLWNGNKIIDERLINPDGSLLFRVTINGVTGWRLCERILANSHGFPPEVEEQAAGTLPMSCAQESGMDRHPAACASARINV
[5]; 10 ng DNA for transfection
  Response: 121
  baseline: 11179
  RLU (10 μM FSK): 1,353,459 RLU
[5]; 100 ng DNA for transfection
  Response: 168
  baseline: 122,071
  RLU (10 μM FSK): 20,544,753 RLU
[6]; 1 μM sulphoraphane
  baseline: 258,406
[6]; 1 μM tBHQ
  baseline: 317,238
[6]; sulphoraphane
  Response: 15
[6]; tBHQ
  Response: 27
CRE [7]; HEK293, 10 nM FSK, 4 h
  baseline: 3,960,000
CRE [7]; HEK293, 4 h
  RLU (10 mM FSK): 460,000,000 RLU
CRE [7]; HEK293, FSK
  Response: 116
CRE [8]; NIH3T3, 10 nM FSK, 4 h
  baseline: 410,461
CRE [8]; NIH3T3, 4 h
  RLU (10 mM FSK): 3,720,000 RLU
CRE [8]; NIH3T3, FSK
  Response: 9
[9]; 17-AAG
  Response: 12
[9]; 6 h
  RLU (1 mM 17-AAG): 3,204,000 RLU
  baseline: 278,118
[10]
  RLU (20 μM sulphoraphane): 3,940,000 RLU
  RLU (20 μM tBHQ): 8,460,000 RLU
